This assay deals with microtubules polymerised from bovine brain tubulin (bovine), Q6B856. Put plainly: TIRF microscopy, single-molecule dwell-time analysis.

B1: His-CLASP2γ-eGFP-StrepII (full-length human CLASP2γ with C-terminal eGFP) (natural protein)
chain: MAMGDDKSFDDEESVDGNRPSSAASAFKVPAPKTSGNPANSARKPGSAGGPKVGGASKEGGAGAVDEDDFIKAFTDVPSIQIYSSRELEETLNKIREILSDDKHDWDQRANALKKIRSLLVAGAAQYDCFFQHLRLLDGALKLSAKDLRSQVVREACITVAHLSTVLGNKFDHGAEAIVPTLFNLVPNSAKVMATSGCAAIRFIIRHTHVPRLIPLITSNCTSKSVPVRRRSFEFLDLLLQEWQTHSLERHAAVLVETIKKGIHDADAEARVEARKTYMGLRNHFPGEAETLYNSLEPSYQKSLQTYLKSSGSVASLPQSDRSSSSSQESLNRPFSSKWSTANPSTVAGRVSAGSSKASSLPGSLQRSRSDIDVNAAAGAKAHHAAGQSVRSGRLGAGALNAGSYASLEDTSDKLDGTASEDGRVRAKLSAPLAGMGNAKADSRGRSRTKMVSQSQPGSRSGSPGRVLTTTALSTVSSGVQRVLVNSASAQKRSKIPRSQGCSREASPSRLSVARSSRIPRPSVSQGCSREASRESSRDTSPVRSFQPLASRHHSRSTGALYAPEVYGASGPGYGISQSSRLSSSVSAMRVLNTGSDVEEAVADALKKPARRRYESYGMHSDDDANSDASSACSERSYSSRNGSIPTYMRQTEDVAEVLNRCASSNWSERKEGLLGLQNLLKNQRTLSRVELKRLCEIFTRMFADPHGKRVFSMFLETLVDFIQVHKDDLQDWLFVLLTQLLKKMGADLLGSVQAKVQKALDVTRESFPNDLQFNILMRFTVDQTQTPSLKVKVAILKYIETLAKQMDPGDFINSSETRLAVSRVITWTTEPKSSDVRKAAQSVLISLFELNTPEFTMLLGALPKTFQDGATKLLHNHLRNTGNGTQSSMGSPLTRPTPRSPANWSSPLTSPTNTSQNTLSPSAFDYDTENMNSEDIYSSLRGVTEAIQNFSFRSQEDMNEPLKRDSKKDDGDSMCGGPGMSDPRAGGDATDSSQTALDNKASLLHSMPTHSSPRSRDYNPYNYSDSISPFNKSALKEAMFDDDADQFPDDLSLDHSDLVAELLKELSNHNERVEERKIALYELMKLTQEESFSVWDEHFKTILLLLLETLGDKEPTIRALALKVLREILRHQPARFKNYAELTVMKTLEAHKDPHKEVVRSAEEAASVLATSISPEQCIKVLCPIIQTADYPINLAAIKMQTKVIERVSKETLNLLLPEIMPGLIQGYDNSESSVRKACVFCLVAVHAVIGDELKPHLSQLTGSKMKLLNLYIKRAQTGSGGADPTTDVSGQS
modifications: not checked
B1 returned a dwell time at growing microtubule tips, with 10 nM EB1 of 1.8 s; a dwell time of lattice-binding events, with 10 nM EB1 of 0.74 s; a mean dwell time on microtubule tips, without EB1 of 0.67 s; a mean dwell time on the microtubule lattice, without EB1 of 0.49 s. Also, the tip association rate, with 10 nM EB1 was found to be 5.3e+08 M⁻¹ s⁻¹ and the tip association rate, without EB1 came to 2.9e+08 M⁻¹ s⁻¹.

For the origin of these results see publication PMC5935067.
